Measurements as given in patent US20110256088A1 (MIT, published 2011).
Bridge positions count the residues as written; N and C are the ends. Ends that are not written are not given here. * marks the point of attachment. Myristoyl = CCCCCCCCCCCCCC(=O)*

Key:
p32 or gC1q receptor [1] = target: T1, p32 or gC1q receptor (human, UniProt Q07021 74-282); assay: free LyP-1 (5 to 20 µM) as competitor on HeLa cells, read out as GFP silencing
T1 construct: whole, on cells; Endogenous protein on cell lines; also called p32 receptor; cell surface p32
T1 sequence (looked up): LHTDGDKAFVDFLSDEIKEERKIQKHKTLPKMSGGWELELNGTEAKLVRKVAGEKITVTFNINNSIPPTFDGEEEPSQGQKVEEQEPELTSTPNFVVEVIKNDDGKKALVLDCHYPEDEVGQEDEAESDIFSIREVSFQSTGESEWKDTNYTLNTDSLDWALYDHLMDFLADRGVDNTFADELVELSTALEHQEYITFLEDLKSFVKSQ

p32 or gC1q receptor [2] = target: T1, p32 or gC1q receptor; assay: TAMRA-labeled tandem peptide incubated on MDA-MB-435 cells with p32 shRNA or control shRNA

CGNKRTRGC (disulfide 1-9 (inferred), also called unlabeled LyP-1 peptide) [free LyP-1 peptide]: binds (p32 or gC1q receptor [1]).

B1: TP-ARAL tandem peptide (peptide)
peptide: Myristoyl-GWTLNSAGYLLGKINLKALAALAKKILGGGGARALPSQRSR
modifications: also: TAMRA label, place not given here
notes: also called untargeted tandem peptide; control peptide (TP-ARAL)
B1: no binding (p32 or gC1q receptor [2]).
